Data reported in PMC2367712.
Read-outs that look alike come from different tables or passages of the source.

Tests used:
Test in all cases: EMSA
Lsr2 [1] = target: T1, Lsr2 (Mycobacterium tuberculosis, UniProt P9WIP7 1-112)
Lsr2 [2] = target: T1, Lsr2; remark: listed apart in the source
Lsr2 [3] = target: T1, Lsr2; remark: listed apart in the source

Binder	binding result (Lsr2 [2])	further results
lmo promoter 104 bp (dsDNA) DNA 1: TGCTGGTCAATTAGGCACTGCGTGACAATTTATCGAGTCGCACAACCGGATCATCCATCCGTTATTTACGTCAATTTAAACGGATGATCTATCCGCTGGCTCCC DNA 2: GGGAGCCAGCGGATAGATCATCCGTTTAAATTGACGTAAATAACGGATGGATGATCCGGTTGTGCGACTCGATAAATTGTCACGCAGTGCCTAATTGACCAGCA	–	binding result (Lsr2 [1]): binds
lmo 26 bp fragment 1 (46% AT) (dsDNA) DNA 1: TGCTGGTCAATTAGGCACTGCGTGAC DNA 2: GTCACGCAGTGCCTAATTGACCAGCA	binds	–
lmo 26 bp fragment 2 (54% AT) (dsDNA) DNA 1: AATTTATCGAGTCGCACAACCGGATC DNA 2: GATCCGGTTGTGCGACTCGATAAATT	binds	–
lmo 26 bp fragment 3 (65% AT) (dsDNA) DNA 1: ATCCATCCGTTATTTACGTCAATTTA DNA 2: TAAATTGACGTAAATAACGGATGGAT	binds	–
C42 (dsDNA) DNA 1: AAAAATCTCTAAAAAATCTCTAAAAATCTCTAAAAAATCTCT DNA 2: AGAGATTTTTTAGAGATTTTTAGAGATTTTTTAGAGATTTTT	–	binding result (Lsr2 [3]): binds
